Assay results as given in US7618943B2, “Fusion polypeptides, and use thereof in antivascular tumor therapy” (Oncoscience AG, priority 2003, dated 2009).
Entries after “also recorded” stand apart in the source; their conditions may differ.

Tests used:
integrin αvβ3 = integrin αvβ3 (Homo sapiens, UniProt P05106+P06756); experiment: ELISA binding to immobilized purified αvβ3
Procedure: FIG. 4: Binding of tTF, tTF-RGD and tTF-NGR to integrin αvβ3. The binding of 0.1 μM tTF, tTF-RGD and tTF-NGR to immobilized αvβ3 was quantified with a polyclonal antibody against human TF (American Diagnostica) in an ELISA. The results are presented as median and interquartile range. The differences in binding between tTF-RGD and tTF or between tTF-NGR and tTF were statistically significant (p<0.001, Mann-Whitney test).

human endothelial cells = experiment: FACS binding of biotinylated proteins to endothelial cells in suspension; format: cell-based; settings: 0.1 μM tTF-RGD, 1 μM competing peptide
Procedure: FIG. 6: Binding of tTF and tTF-RGD to human endothelial cells. A: FACS analysis of endothelial cells incubated with 0.1 μM tTF (2) or with 0.1 μM tTF-RGD (3) for 60 min at 4° C. […] Curves 1 in A and B show the negative control.
Next the specific binding of tTF-RGD to αvβ3 on endothelial cells was evaluated. For this, the differential binding of biotinylated tTF and tTF-RGD to endothelial cells in suspension was analysed by FACS (Fluorescence Activated Cell Sorting). The fact that all endothelial cells held in tissue culture are activated, i.e. express αvβ3 molecules, is utilized experimentally. This can be detected by various immunohistochemical methods. A cultivated endothelial cell thus corresponds, in relation to its expression pattern with respect to αvβ3 to a tumor endothelial cell. Accordingly, a cultivated endothelial cell can be used as a model system for the specific binding of substances to tumor endothelial cells and also permits predictions to be made concerning the expected toxicity.
Streptavidin-phycoerythrin was used as the detection method. The measured fluorescence intensity for tTF-RGD was higher by a factor of 8 than for tTF (FIG. 6A). Furthermore, the binding of 0.1 μM tTF-RGD to endothelial cells was lowered competitively by 75% by the administration of 1 μM of the synthetic peptide GRGDSP (SEQ ID NO:33) (FIG. 6B). […]

[1] = biological target: T1, matrix metalloproteinase-2 (MMP-2) (Homo sapiens, UniProt P08253); settings: cited from earlier work
T1 sequence (P08253 110-660): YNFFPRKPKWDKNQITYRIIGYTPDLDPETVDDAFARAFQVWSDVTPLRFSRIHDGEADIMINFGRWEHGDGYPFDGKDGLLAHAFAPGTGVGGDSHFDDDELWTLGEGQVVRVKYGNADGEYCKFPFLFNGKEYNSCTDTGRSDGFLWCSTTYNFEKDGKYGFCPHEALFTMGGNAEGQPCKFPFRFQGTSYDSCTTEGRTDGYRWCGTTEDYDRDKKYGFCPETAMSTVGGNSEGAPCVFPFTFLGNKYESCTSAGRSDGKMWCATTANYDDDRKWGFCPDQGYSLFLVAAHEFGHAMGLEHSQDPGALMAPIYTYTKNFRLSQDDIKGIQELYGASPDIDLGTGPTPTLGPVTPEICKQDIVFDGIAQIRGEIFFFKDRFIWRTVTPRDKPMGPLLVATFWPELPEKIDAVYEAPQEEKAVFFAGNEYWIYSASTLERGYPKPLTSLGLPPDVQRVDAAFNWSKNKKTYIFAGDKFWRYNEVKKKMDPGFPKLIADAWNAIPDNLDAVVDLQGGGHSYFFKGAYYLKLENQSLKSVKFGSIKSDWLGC

[2] = biological target: T2, activation of factor X to factor Xa via factor VIIa (Homo sapiens, UniProt P08709); experiment: Cofactor activity in activation of FX by FVIIa (Michaelis-Menten analysis, chromogenic FXa readout); format: biochemical; settings: in the presence of phospholipids
T2 construct: 50 nM recombinant FVIIa (Novo-Nordisk) in TBS-BSA; purchased Novo-Nordisk (FVIIa); Enzyme Research Laboratories (FX)
T2 sequence (P08709 61-212 limits assumed): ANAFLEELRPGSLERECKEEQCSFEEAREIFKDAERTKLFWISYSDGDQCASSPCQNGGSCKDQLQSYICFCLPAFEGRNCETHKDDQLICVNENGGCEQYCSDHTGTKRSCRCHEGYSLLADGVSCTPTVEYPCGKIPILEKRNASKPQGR
T2 sequence (P08709 213-466 limits assumed): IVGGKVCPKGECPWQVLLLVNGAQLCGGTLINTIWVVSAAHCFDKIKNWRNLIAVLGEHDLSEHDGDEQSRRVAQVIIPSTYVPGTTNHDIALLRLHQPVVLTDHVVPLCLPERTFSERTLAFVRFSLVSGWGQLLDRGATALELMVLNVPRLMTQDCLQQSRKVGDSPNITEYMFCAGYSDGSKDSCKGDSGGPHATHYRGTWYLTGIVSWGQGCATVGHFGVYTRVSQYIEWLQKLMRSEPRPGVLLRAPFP
Procedure: The ability of tTF and of the tTF fusion polypeptides to intensify the specific proteolytic activation of FX via FVIIa in the presence of phospholipids was determined in a slightly modified version of the method described by Ruf (45). For this, 20 μl of each of the following reagents was pipetted in microtiter plates: (a) 50 nM recombinant FVIIa (Novo-Nordisk) in TBS-BSA; (b) 0.16 nM-1.6 μM tTF/tTF fusion polypeptide in TBS-BSA; (c) 25 mM CaCl2 and 500 μM phospholipid vesicle (phosphatidylcholine/phosphatidylserine, 70/30, M/M; Sigma). After 10 min incubation at room temperature, 20 μl of the natural substrate FX (Enzyme Research Laboratories) was added at a concentration of 5 μM. Then a sample was taken by pipette at one-minute intervals and the reaction was stopped by adding 100 mM EDTA solution. The amount of FXa that formed was measured by addition of the chromogenic substrate Spectrozyme FXa in a Microplate Reader by determining the change in absorption at 405 nm and the parameters for the Michaelis-Menten kinetics were analysed by the method described by Ruf. […] The Michaelis constants (Km) found for the fusion polypeptides were in the range 0.12-1.2 nM (FIG. 3), and thus in the lower range that is published for tTF. It can therefore be assumed that the functional activity is unaffected by the fusing of tTF with the peptides.

[3] = tested on: human malignant melanoma (M21); experiment: M21 melanoma xenograft in athymic nude mice, intravenous therapy; format: in vivo
Procedure: The vertical arrows indicate the times of injection with the respective substances.
The vertical arrows indicate the times of the injections with the respective substances.
(§1) The tTF-RGD and tTF-NGR fusion proteins were evaluated with respect to their effects and side-effects on xenografts of human tumors in athymic nude mice. The models established in our laboratory were used for this (33, 34). The cell lines CCL185 (human adenocarcinoma of the lung) and M-21 (human melanoma) were injected subcutaneously into the flank of male BALB/c nude mice (9-12 weeks old). On attaining a tumor volume of about 50-100 mm^3 (CCL185) or 400-600 mm^3 (M−21), the mice were assigned to four groups at random. Group 1 received only physiological saline solution (NaCl), group 2 tTF, group 3 tTF-RGD, and group 4 tTF-NGR (in each case 1.5-2.0 mg/kg body weight (BW) of the protein). The injections were made in the caudal vein of the animals at intervals of 1-3 days (depending on the growth rate of the particular cell line). Considerable therapeutic activity of the fusion proteins was observed.

[4] = tested on: human fibrosarcoma (HT1080); experiment: HT1080 fibrosarcoma xenograft in BALB/c nude mice, intravenous therapy; format: in vivo; settings: HT1080 tumors
From the text: b: Inhibition of a human fibrosarcoma (HT1080) growing as a xenograft in athymic nude mice by intravenous therapy with tTF fusion proteins (tTF-RGD, n=12) compared with the growth of the tumors with infusion of physiological saline solution (NaCl, n=15) or tTF (n=14). The vertical arrows indicate the times of the injections with the respective substances.
The antitumor activity of the tTF-RGD fusion protein was also investigated in BALB/c nude mice with fibrosarcomas (HT1080). These tumors grow rapidly and are well-vascularized. […] This effect lasted until the end of the experiment on day 7 (P=0.021 for tTF-RGD relative to the buffer control (physiological saline solution), P=0.005 for tTF-RGD relative to tTF).

[5] = tested on: human lung carcinoma (CCL185); experiment: CCL185 lung carcinoma xenograft in athymic nude mice, intravenous therapy; format: in vivo
From the text: FIG. 7: Inhibition of a human lung carcinoma (CCL185) growing as a xenograft in athymic nude mice by intravenous therapy with tTF fusion proteins (tTF-RGD, n=6; tTF-NGR, n=6) compared with tumor growth with infusion of physiological saline solution (NaCl, n=8) or tTF (n=1). The vertical arrows indicate the times of injection with the respective substances.
c: Inhibition of a human lung carcinoma (CCL185) growing as a xenograft in athymic nude mice by intravenous therapy with tTF fusion proteins (tTF-RGD, n=11) compared with the growth of the tumors in infusion of physiological saline solution (NaCl, n=10) or tTF (n=5). The vertical arrows indicate the times of the injections with the respective substances.
as §1

tumor blood vessels = experiment: Macroscopy and histology of tumors after injection (thrombosis induction in tumor vessels, necrosis); format: in vivo, mice
Procedure: FIG. 9: Macroscopic in vivo photograph of a tumor-bearing mouse 20 min after injection of the tTF-NGR fusion protein (A, left half of the picture) or NaCl (A, right half of the picture). […] After 60 min, the two mice were exsanguinated, the tumor was excised in toto and examined histologically. […] In contrast, the NaCl-treated tumor appears to be vital (C).
FIG. 10: Histology of the melanoma tumor 1 hour after intravenous injection of tTF-RGD (A and B), tTF-NGR (C and D) and common salt (E and F) in the caudal vein of the tumor-bearing nude mouse. […] The photographs are of representative areas of the tumors (A, C and E: 200× magnification, B, D and F 400× magnification; HE staining (staining described e.g. in H. C. Burck, Histologische Technik-Leitfaden für die Herstellung mikroskopischer Präparate in Unterricht und Praxis, 5th edition, Thieme Verlag, Stuttgart 1982, pages 109 ff.).
FIG. 35: Macrograph of a mouse bearing an M21 tumor at the end of treatment (day 7) with tTF-RGD fusion protein (A, C) or NaCl (B, D).
To verify the mechanism of action of thrombosis induction in tumor vessels, the following experiment was carried out: the human melanoma cell line was injected into the flank of two male BALB/c nude mice. On attaining a tumor size of approx. 500 mm^3, 2.0 mg/kg BW tTF-NGR or NaCl was injected into the caudal vein. […] After 60 min the mice were exsanguinated, the tumor was excised in toto and investigated histologically. […] In contrast, the tumor treated with NaCl appears to be vital (FIG. 9C).

[6] = tested on: normal tissue such as heart, kidney, liver and lung; experiment: Histology of normal organs after injection (clotting, necrosis, organ toxicity); settings: repeated high doses (4 mg/kg BW)
[7] = melanoma tumor 1 hour after intravenous injection, HE staining

Chain of integrin αvβ3 (P06756 31-889 limits assumed): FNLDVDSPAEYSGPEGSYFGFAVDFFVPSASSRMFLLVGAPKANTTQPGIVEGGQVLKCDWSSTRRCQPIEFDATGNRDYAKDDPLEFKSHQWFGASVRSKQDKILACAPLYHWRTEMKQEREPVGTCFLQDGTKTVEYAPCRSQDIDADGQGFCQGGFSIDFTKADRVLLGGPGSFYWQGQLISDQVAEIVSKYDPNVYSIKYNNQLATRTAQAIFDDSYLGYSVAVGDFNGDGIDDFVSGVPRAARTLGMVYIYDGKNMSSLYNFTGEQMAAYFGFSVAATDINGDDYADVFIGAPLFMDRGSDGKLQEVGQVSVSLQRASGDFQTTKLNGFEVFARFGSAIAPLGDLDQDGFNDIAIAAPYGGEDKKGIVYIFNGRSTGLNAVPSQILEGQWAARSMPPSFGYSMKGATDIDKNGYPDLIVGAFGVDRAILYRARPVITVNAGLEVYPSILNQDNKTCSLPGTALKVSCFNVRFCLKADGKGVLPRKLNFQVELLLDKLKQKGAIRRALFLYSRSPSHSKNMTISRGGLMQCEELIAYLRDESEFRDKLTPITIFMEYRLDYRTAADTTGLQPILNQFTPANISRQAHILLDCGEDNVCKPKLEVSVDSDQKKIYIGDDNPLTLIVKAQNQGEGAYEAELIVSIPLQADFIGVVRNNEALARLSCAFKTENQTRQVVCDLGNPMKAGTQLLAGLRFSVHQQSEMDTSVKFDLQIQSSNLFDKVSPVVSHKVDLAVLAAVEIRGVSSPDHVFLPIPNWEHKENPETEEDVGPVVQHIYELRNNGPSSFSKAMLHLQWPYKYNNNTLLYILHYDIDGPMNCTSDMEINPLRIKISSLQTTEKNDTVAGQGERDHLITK
Chain of integrin αvβ3 (P06756 891-1048 limits assumed): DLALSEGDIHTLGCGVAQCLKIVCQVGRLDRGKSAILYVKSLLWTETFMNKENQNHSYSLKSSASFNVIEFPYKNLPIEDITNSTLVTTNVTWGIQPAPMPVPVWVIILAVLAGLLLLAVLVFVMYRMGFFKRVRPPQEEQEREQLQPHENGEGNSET
Chain of integrin αvβ3 (P05106 27-788): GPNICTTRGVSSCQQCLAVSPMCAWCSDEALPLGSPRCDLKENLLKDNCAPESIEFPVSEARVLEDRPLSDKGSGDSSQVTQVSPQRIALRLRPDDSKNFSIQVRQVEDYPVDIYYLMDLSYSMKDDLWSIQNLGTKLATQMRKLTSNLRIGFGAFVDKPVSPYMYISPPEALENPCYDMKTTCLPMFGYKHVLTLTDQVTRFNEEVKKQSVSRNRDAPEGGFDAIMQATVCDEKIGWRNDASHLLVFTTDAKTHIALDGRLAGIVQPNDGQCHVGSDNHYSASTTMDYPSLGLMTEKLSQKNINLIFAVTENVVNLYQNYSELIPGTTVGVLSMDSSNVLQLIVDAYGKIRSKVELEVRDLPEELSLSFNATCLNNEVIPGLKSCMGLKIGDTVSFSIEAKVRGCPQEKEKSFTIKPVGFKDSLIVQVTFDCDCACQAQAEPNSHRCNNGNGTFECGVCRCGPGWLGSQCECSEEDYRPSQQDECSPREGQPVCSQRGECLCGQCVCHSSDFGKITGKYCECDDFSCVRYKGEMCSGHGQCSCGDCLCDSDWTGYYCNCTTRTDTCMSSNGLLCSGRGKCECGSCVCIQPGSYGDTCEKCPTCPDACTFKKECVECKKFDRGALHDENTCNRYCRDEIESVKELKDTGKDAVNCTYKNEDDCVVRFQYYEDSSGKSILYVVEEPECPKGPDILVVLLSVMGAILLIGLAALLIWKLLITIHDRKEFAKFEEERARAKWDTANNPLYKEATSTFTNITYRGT

Molecule: GRGDSP: synthetic peptide with the sequence GRGDSP (SEQ ID NO:33) from the company Gibco
- p of inhibition of tTF-RGD binding (Mann-Whitney test) (integrin αvβ3; both RGD peptide concentrations (1-10 μM)): < 0.001
- competitive inhibition of binding of tTF-RGD to immobilized αvβ3 (integrin αvβ3; tTF-RGD 0.1 μM, peptide 1-10 μM): competitively inhibits; also recorded: inhibited significantly
- reduction in binding of tTF-RGD to endothelial cells (human endothelial cells): 75%

Molecule: TTHWGFTL
- inhibition of MMP-2 [1]: selective and potent inhibition

B1: tTF: truncated human tissue factor, N-terminal 218 amino acids of TF (SEQ ID NO:2) (protein, listed as Homo sapiens)
chain: SGTTNTVAAYNLTWKSTNFKTILEWEPKPVNQVYTVQISTKSGDWKSKCFYTTDTECDLTDEIVKDVKQTYLARVFSYPAGNVESTGSAGEPLYENSPEFTPYLETNLGQPTIQSFEQVGTKVNVTVEDERTLVRRNNTFLSLRDVFGKDLIYTLYYWKSSSSGKKTAKTNTNEFLIDVDKGENYCFSVQAVIPSRTVNRKSTDSPVECMGQEKGEFR
modifications: Amino acid sequence of tTF1-218
- functional activity (cofactor activity in FX activation via FVIIa) [2]: functionally active
- Mean tumor volume Day 0 ([3]; M21 tumors, Day 0 (baseline)): 558 ± 47 mm^3
- Mean tumor volume Day 7 ([3]; M21 tumors, Day 7): 931 ± 147 mm^3
- Mean tumor volume Day 0 ([4]; Day 0 (baseline)): 1751 ± 269 mm^3
- Mean tumor volume Day 7 ([4]; Day 7): 2335 ± 398 mm^3
- Mean tumor volume Day 0 ([5]; CCL185 tumors, Day 0 (baseline)): 44 ± 8 mm^3
- Mean tumor volume Day 7 ([5]; CCL185 tumors, Day 7): 764 ± 148 mm^3

B2: tTF-NGR: fusion polypeptide tTF-GNGRAHA (SEQ ID NO:4) (protein)
chain: SGTTNTVAAYNLTWKSTNFKTILEWEPKPVNQVYTVQISTKSGDWKSKCFYTTDTECDLTDEIVKDVKQTYLARVFSYPAGNVESTGSAGEPLYENSPEFTPYLETNLGQPTIQSFEQVGTKVNVTVEDERTLVRRNNTFLSLRDVFGKDLIYTLYYWKSSSSGKKTAKTNTNEFLIDVDKGENYCFSVQAVIPSRTVNRKSTDSPVECMGQEKGEFRGNGRAHA
modifications: Amino acid sequence of tTF-GNGRAHA
- binding to the αvβ3 integrin in ELISA (integrin αvβ3; 0.1 μM protein, immobilized αvβ3): demonstrated
- effect on tumor growth ([3]; M21 xenograft, intravenous therapy, compared with NaCl or tTF): Inhibition and partial remission
- effect on tumor growth ([5]; CCL185 xenograft, intravenous therapy, compared with NaCl or tTF): Inhibition
- histology of tumor blood vessels (thrombus formation) (tumor blood vessels; [7]): microscopically visible thrombus formation in the blood vessels; also recorded: blood vessels appear to be thrombolytically occluded
- histology: tumor necrosis in supply region of occluded vessel (tumor blood vessels; [7]): Extensive tumor necroses
- macroscopic picture of the tumor in vivo (tumor blood vessels; melanoma, 20 min after 2.0 mg/kg BW into the caudal vein): bluish-livid coloration of the tumor
- appearance of the excised tumor (tumor blood vessels; melanoma, excised 60 min after 2.0 mg/kg BW): hemorrhagic imbibition of the tumor
- visible clot formation or organ toxicity [6]: did not lead to any visible clot formation or organ toxicity
